# Results from patent publication US20150110806A1 (INSTITUT NATIONAL DE LA SANTE ET DE LA RECHERCHE MEDICALE, published 2015).
# Molecular target: T1, MBP (UniProt P0AEX9 27-392 = MBP)
# T1 construct: Control without pilin
# Test: co-precipitation of CD147-Fc with MBP immobilised on staphylococci, immunoblot
binder,measurement,value
"recombinant human CD147-Fc chimera (Fc fusion, Bought from R&D Systems; comprises the Ig domains of CD147 fused to the Fc domain of human IgG1, produced as a disulfide-linked homodimer; also called soluble chimeric CD147-Fc; recombinant soluble form of the extracellular domain of CD147; not shown: Fc domain of human IgG1) THGASGAAGTVFTTVEDLGSKILLTCSLNDSATEVTGHRWLKGGVVLKEDALPGQKTEFKVDSDDQWGEYSCVFLPEPMGTANIQLHGPPRVKAVKSSEHINEGETAMLVCKSESVPPVTDWAWYKITDSEDKALMNGSESRFFVSSSQGRSELHIENLNMEADPGQYRCNGTSSKGSDQAIITLRVRSH",binding result,no binding (tested: 1 µg of recombinant human CD147-Fc)
